The values below come from patent publication US20150362488.

In this data set the test system is RecQ helicase (Escherichia coli). To be noted: single-molecule hairpin re-zipping blockage (magnetic tweezers); no ATP; Ftest 10 pN; non-specific binding along template.

As for “mechanically opened DNA hairpin (ssDNA template)”, the K half is 0.226 nM.
